# Reference: patent US20250011363A1, “OPTIMIZED SHORTENED PEPTIDE THAT BINDS TO ACETYLCHOLINE RECEPTOR, AND USE THEREOF” (SKINMED CO., LTD., priority 2021, published 2025)
# Target: acetylcholine receptor
# Assay: SPR, AchR on CM5 chip, peptide 10 µM
row,Binder,Binding affinity (RU)
1,KKMENR [6mer-1-1139],36 RU
2,RRHTMR [6mer-1-1177],21 RU
3,KKNNAK [6mer-1-1186],37 RU
4,RKMTPK [6mer-1-1149],30 RU
5,KRNMHK [6mer-1-1141],40 RU
6,KRMSWK [6mer-1-1134],22 RU
7,KKETPR [6mer-1-1142],24 RU
8,RKMDIR [6mer-1-1169],32 RU
9,RRDTVK [6mer-1-1184],30 RU
10,KRMTPR [6mer-1-1179],40 RU
11,KRPPPK [6mer-1-1180],34 RU
12,KKEKFR [6mer-1-1168],40 RU
13,RRDWAK [6mer-1-1160],29 RU
14,KRFTDK [6mer-1-1137],33 RU
15,RRKAER [6mer-1-1132],31 RU
16,KKKEAK [6mer-1-1151],34 RU
17,KRATMK [6mer-1-1140],43 RU

row,Binder,Binding affinity (RU)
1,KKMMPK [6mer-1-1146],34 RU
2,KKIEIK [6mer-1-1136],34 RU
3,KRKWWR [6mer-1-1150],34 RU
4,RRCSHR [6mer-1-1148],31 RU
5,KRDCFR [6mer-1-1138],21 RU
6,KRHWVK [6mer-1-1161],40 RU
7,KRHMMK [6mer-1-1167],42 RU
8,RRDCKK [6mer-1-1145],40 RU
9,RKDAIR [6mer-1-1174],30 RU
10,RKTWEK [6mer-1-1175],23 RU
11,RKIAFK [6mer-1-1171],40 RU
12,KKCMGR [6mer-1-1144],25 RU
13,RKCAFK [6mer-1-1163],21 RU
14,RRMDAK [6mer-1-1181],21 RU
15,RRHAHK [6mer-1-1187],26 RU
16,KKHHAK [6mer-1-1164],41 RU
17,KRYTVR [6mer-1-1156],37 RU

# Further lines, results first:
row,Binding affinity (RU),Binder
1,29 RU,RRATWR [6mer-1-1165]
2,41 RU,KKCDHR [6mer-1-1162]
3,35 RU,RKIHNK [6mer-1-1183]
4,39 RU,RRAWPR [6mer-1-1159]
5,33 RU,RKPMMK [6mer-1-1158]
6,41 RU,RRMNER [6mer-1-1188]
7,28 RU,RKKEKR [6mer-1-1155]
8,35 RU,RKAPHR [6mer-1-1147]
9,26 RU,KKHTER [6mer-1-1135]
10,35 RU,KKTCHR [6mer-1-1182]
11,26 RU,KKIPMK [6mer-1-1173]
12,23 RU,RKYKEK [6mer-1-1152]
13,36 RU,RKESVR [6mer-1-1157]
14,41 RU,RKCEKR [6mer-1-1154]
15,29 RU,RKKMAK [6mer-1-1178]
16,23 RU,RKHNKK [6mer-1-1153]
17,22 RU,KKEEKR [6mer-1-1166]
18,21 RU,KKADHK [6mer-1-1176]
19,24 RU,KKPNIK [6mer-1-1133]
20,23 RU,RRFNFR [6mer-1-1172]
21,32 RU,KRHEFK [6mer-1-1143]
22,25 RU,KKYNPK [6mer-1-1170]
23,29 RU,KKEMMK [6mer-1-1185]

# Target: acetylcholine receptor
# Assay: SPR, acetylcholine receptor on CM5 chip, peptide at 10 uM
row,Binder,Binding affinity (RU)
1,RRWLSK [6mer-1-592],135 RU
2,KKVLYK [6mer-1-583],139 RU
3,KRVICK [6mer-1-586],136 RU
4,KKLYQR [6mer-1-599],124 RU
5,KKSLQK [6mer-1-580],121 RU
6,KRQLQR [6mer-1-594],121 RU
7,KKQLLK [6mer-1-587],148 RU
8,KRGYCR [6mer-1-600],139 RU
9,RKGVTK [6mer-1-590],142 RU
10,RKSRQK [6mer-1-585],144 RU
11,KKSLCK [6mer-1-595],121 RU
12,KRWFLK [6mer-1-582],137 RU
13,KRGLYK [6mer-1-581],139 RU
14,RRLVRK [6mer-1-588],153 RU

# Results, then the binder that gave them:
row,Binding affinity (RU),Binder
1,139 RU,KKLQQK [6mer-1-589]
2,148 RU,RKGVLR [6mer-1-596]
3,148 RU,RKVYRK [6mer-1-593]
4,142 RU,RKWLSK [6mer-1-598]
5,147 RU,KKRLYR [6mer-1-591]
6,148 RU,KRGFYK [6mer-1-597]
7,127 RU,RKQVSK [6mer-1-584]
